According to article PMC5658359, “A potent small-molecule inhibitor of the DCN1-UBC12 interaction that selectively blocks cullin 3 neddylation” (Nature Communications, 2017):
Each block holds one binder with its values, some of them ahead of it. Primed or numbered codes have the meaning given here. Where no end group is shown, it is not given here. [ ]: non-standard residue; d: D form. Ala(benzothiazol-2-yl)′ = not defined here; Phe(2-Cl) = N[C@@H](Cc1ccccc1Cl)C(=O)O; 1Nal = N[C@@H](Cc1cccc2ccccc12)C(=O)O; 2Nal = N[C@@H](Cc1ccc2ccccc2c1)C(=O)O; hPhe = N[C@@H](CCc1ccccc1)C(=O)O

Molecular target: T1, human DCN1 (residues 58–259), N-terminal His6 tag (human, UniProt Q96GG9 58-259)
T1 construct: DCN1 (defective in cullin neddylation 1), human, residues 58-259, cloned into pDEST17; residues 60-251 are visible in PDB 5UFI; also called defective in cullin neddylation 1; source: Rosetta2 cells, purified (Ni-NTA, Superdex 75); not shown: His6, N-terminal, kept
T1 sequence (Q96GG9 58-259): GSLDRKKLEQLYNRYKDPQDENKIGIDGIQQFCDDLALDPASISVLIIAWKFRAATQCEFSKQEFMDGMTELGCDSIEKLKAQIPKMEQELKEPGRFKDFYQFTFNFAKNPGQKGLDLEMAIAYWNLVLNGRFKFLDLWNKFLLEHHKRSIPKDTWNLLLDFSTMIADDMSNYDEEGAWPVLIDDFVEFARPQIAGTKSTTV
Assay: fluorescence polarisation; competitive: peptide added to pre-incubated DCN1 (50 nM) and FAM-labelled small-molecule probe 46 (5 nM); 100 mM phosphate buffer pH 6.5, 0.02% Tween-20, 2% DMSO; room temperature, 30 min; Ki calculated from IC50
Conditions: both partners purified

- fold less potent than 24: 17 fold
Binder: [Ala(5-Cl-benzothiazol-2-yl)]IKL [compound 25 (24 with 5-Cl on the benzothiazol-2-yl)]

- fold more potent than 11: 11 fold
Binder: [2Nal]IKL [compound 23 (11 with the phenyl replaced by naphthalen-2-yl)]

- Ki: 150 nM
Binder: [Ala(benzothiazol-2-yl)′]IKL [compound 24 (11 with the phenyl replaced by benzothiazol-2-yl)]

- fold more potent than 24: 4 fold
Binder: [Ala(6-Cl-benzothiazol-2-yl)]IKL [compound 26 (24 with 6-Cl on the benzothiazol-2-yl)]

- Ki: 5 nM
Binder: [Ala(6-isopropyl-benzothiazol-2-yl)]IKL [compound 27 (26 with the 6-Cl replaced by an isopropyl group)]

- Ki: 354000 nM
Binder: [1Nal]IKL [compound 22 (11 with the phenyl replaced by naphthalen-1-yl)]

- fold decrease in binding affinity (against 11): 3 fold
Binder: [Phe(2-Cl)]IKL [compound 13 (11 with Cl at the ortho position of the phenyl ring)]

More lines, now with the values behind:

B1: UBC12 peptide 8 (peptide, UniProt P61081 1-5, looked up)
peptide: MIKLF
notes: UBC12, N-terminal 5 residues (Met1 to Phe5; Ser6 deleted from 7); Terminal groups surmised Ac-...-NH2; source: synthetic peptide
- binding result: binds

B2: UBC12 peptide 7 (peptide, UniProt P61081 1-6, looked up)
peptide: MIKLFS
notes: UBC12, N-terminal 6 residues (Met1 to Ser6; Leu7 removed from 6); Terminal groups surmised Ac-...-NH2; source: synthetic peptide
- fold loss in binding affinity (against 6): 3 fold

B3: UBC12 seven-residue peptide (6) (peptide, UniProt P61081 1-7, looked up)
peptide: MIKLFSL
notes: UBC12, N-terminal 7 residues (Met1 to Leu7; Lys8 removed from 5); Terminal groups surmised Ac-...-NH2; source: synthetic peptide
- fold loss in binding affinity (against 5): 3 fold

B4: UBC12 peptide 2 (peptide 1 without Lys12) (peptide, UniProt P61081 1-11, looked up)
peptide: MIKLFSLKQQK
notes: UBC12, N-terminal 11 residues (truncation of Lys12 from the 12-residue peptide); Terminal groups surmised Ac-...-NH2; source: synthetic peptide
- binding result: binds

Binder: [hPhe]IKL [compound 12 (tetrapeptide 9 with Met1 replaced by homophenylalanine)]
- fold decrease in binding affinity (reference not named: 9 or 11): 6 fold

B5: UBC12 peptide 4 (peptide, UniProt P61081 1-9, looked up)
peptide: MIKLFSLKQ
notes: Terminal groups surmised Ac-...-NH2; source: synthetic peptide
- binding result: binds

B6: UBC12 peptide 3 (peptide, UniProt P61081 1-10, looked up)
peptide: MIKLFSLKQQ
notes: as for B5
- binding result: binds

B7: UBC12 peptide 5 (peptide, UniProt P61081 1-8, looked up)
peptide: MIKLFSLK
notes: UBC12, N-terminal 8 residues (Met1 to Lys8); Terminal groups surmised Ac-...-NH2; source: synthetic peptide
- binding result: binds
